Patent US8153410B2, “Alternate morpheein forms of allosteric proteins as a target for the development of bioactive molecules” (Fox Chase Cancer Center, priority 2003, dated 2012)
“Also recorded” adds a separate entry of the source. Like-named read-outs stand apart in the source and are kept apart here.

T1: pea PBGS (Pisum sativum, UniProt P30124)
T1 sequence (P30124 69-398 limits assumed): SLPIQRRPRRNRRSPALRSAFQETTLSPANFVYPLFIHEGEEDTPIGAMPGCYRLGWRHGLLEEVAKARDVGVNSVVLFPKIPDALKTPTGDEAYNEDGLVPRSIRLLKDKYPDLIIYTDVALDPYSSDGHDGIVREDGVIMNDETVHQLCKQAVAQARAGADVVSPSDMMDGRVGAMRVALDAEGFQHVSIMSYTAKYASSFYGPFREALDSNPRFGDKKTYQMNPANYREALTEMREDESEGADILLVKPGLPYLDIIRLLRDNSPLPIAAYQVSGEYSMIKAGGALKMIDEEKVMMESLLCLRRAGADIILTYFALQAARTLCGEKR

B1: F12L: naturally occurring rare allele variant of human PBGS, hexameric, heterologously expressed in E. coli (protein)
chain: MQPQSVLHSGYLHPLLRAWQTATTTLNASNLIYPIFVTDVPDDIQPITSLPGVARYGVNRLEEMLRPLVEEGLRCVLIFGVPSRVPKDERGSAADSEESPAIEAIHLLRKTFPNLLVACDVCLCPYTSHGHCGLLSENGAFRAEESRQRLAEVALAYAKAGAQVVAPSDMMDGRVEAIKEALMAHGLGNRVSVMSYSAKFASCFYGPFRDAAKSSPAFGDRRCYQLPPGARGLALRAVDRDVREGADMLMVKPGMPYLDIVREVKDKHPDLPLAVYHVSGEFAMLWHGAQAGAFDLKAAVLEAMTAFRRAGADIIITYYTPQLLQWLKEE

Assays:
Format in all cases: biochemical
pea PBGS [1] = biological target: T2, pea PBGS (Pisum sativum, UniProt P30124, C394A); experiment: native PAGE gel shift of pea PBGS octamer/hexamer equilibrium; conditions: pea PBGS C326A hexamer, rosmarinic acid 12.5 μM-12.5 mM preincubated 30 min 37 C, then 1 mM ALA and 1 mM MgCl2
T2 construct: made in house
Method: (§1) FIG. 32(a) The inhibitor morphlock-1 is illustrated as posed by Glide. The subunits A, B, and E are illustrated as ribbon diagram. Morphlock-1 is shown with carbon atoms and illustrated as ball and stick. FIG. 32(b) The chemical structure of morphlock-1. […] Pea PBGS was incubated with various concentrations of morphlock-1 (in a DMSO solution). Each concentration of morphlock-1 with a fixed amount of DMSO was incubated with protein for 30 minutes at 37° C. prior to resolution on 12.5% polyacrylamide native PhastGels. […] (d) The protein concentration dependence of pea PBGS specific activity is illustrated. PBGS (at varied concentrations) was incubated in the presence of DMSO (●) or 50 μM morphlock-1 in DMSO (∘) for 30 minutes at 37° C. prior to assay. The final concentration of morphlock-1 in the inhibited assay was 5 μM, and the concentration of PBGS in the inhibited and control assays ranged from 0.05-50 μg/mL (0.014-1.4 μM).
FIG. 34(b) Hexameric pea PBGS (1 mg/mL, prepared by dialysis against low ionic strength) was incubated with DMSO (left) or 500 μM morphlock-1 (right) for 30 minutes at 37° C. ALA was added at the indicated concentrations, and the incubation was continued for 30 minutes prior to resolution on 12.5% polyacrylamide native PhastGels. […] Morphlock-1 concentrations are listed at the top of each lane. Protein samples for left-most gel were at 50 μg/ml (1.4 μM subunit) and 1 mM ALA; protein detection is by silver staining. Samples for the middle gel were also at 50 μg/ml (1.4 μM subunit) and 1 mM ALA; the gel was activity stained. Samples for the right-most gel were at 5 μg/ml (0.14 μM subunit) and 10 mM magnesium; protein detection is by Krypton Infrared staining.
FIG. 41 illustrates native PAGE screening of compounds. Octameric PBGS (1 mg/mL) was incubated with DMSO or 2 mM of each compound for 30 minutes at 37° C. prior to resolution on 12.5% polyacrylamide native PhastGels. […] Each compound is identified by its box address. The compound B6 is morphlock-1.
The interconversion of pea PBGS hexamer and octamer is a dynamic equilibrium that responds to protein concentration, substrate concentration, magnesium concentration, inhibitor concentration, and ionic strength.

pea PBGS [2] = biological target: T1, pea PBGS; experiment: pea PBGS activity assay (inhibition, protein concentration dependent specific activity); set-up: made in house
Method: as §1, with “PBGS (at varied concentrations) was incubated in the presence of DMSO (●) or 50 μM morphlock-1 in DMSO (∘) for 30 minutes at 37° C. prior to assay.” left out
The proteins were incubated in the presence of 10× inhibitor for 30 minutes at 37° C. prior to assay. The concentrations on the X-axis represent the final concentration of morphlock-1 in the assay. FIG. 33(b). […] IC50 values were determined as per part (a) using the noted concentrations of pea PBGS. (c) Native PAGE evaluation of the effect of morphlock-1 on the quaternary structure equilibria of PBGS (˜1 mg/ml) from D. melanogaster, P. aeruginosa, V. cholerae, and H. sapiens. Note that the charge/mass ratio is not the same for PBGS from different species.
The dose response curve for morphlock-1 inhibition of pea PBGS (FIG. 37a) was initially carried out at 0.03 μM pea PBGS, where the hexamer is a significant component of the equilibrium mixture; the morphlock-1 concentration was varied from 0.1 μM to 0.1 mM.
The dose response curve for morphlock-1 inhibition of pea PBGS (FIG. 33(a)) was initially carried out at 0.03 μM pea PBGS, where the hexamer is a significant component of the equilibrium, in order to optimize the observed inhibition; the morphlock-1 concentration was varied from 0.1 μM to 0.1 mM.

human PBGS [3] = experiment: kinetic characterization (Km, Vmax, specific activity) of human PBGS variants with substrate ALA; conditions: for Km1 / Vmax1: Table 1; for Vmax2 / Km: Table 3; for Km: read-out: Km2 (Km for the hexamer)
Method: All kinetic determinations were carried out in 0.1 M bis-tris propane, 10 mM 2-mercaptoethanol, 10 μM Zn. For the pH rate profiles, the reported pH reflects the assay pH after the addition of 10 mM ALA-HCl. For Km and Vmax determinations, concentrations of ALA were 10 μM, 30 μM, 100 μM, 300 μM, 1 mM, 3 mM, and 10 mM and were each done in duplicate. […] All assays were at 37° C. for a fixed time using Ehrlich's reagent to determine porphobilinogen formed.
The kinetic parameters Km and Vmax of the S300 purified pools were determined at pH 7 and at pH 9 (Table 3 contains data for hetero-hexamers (Pool I) initially at 70% Leu and 30% Phe and for hetero-octamers (Pool II) initially at 30% Leu and 70% Phe). […] With the exception of the trace amount of octamer present for Pool I that is detected at pH 9, all the kinetic values are well determined (see Table 3). […] The factors that govern equilibration of human PBGS heteromers under assay conditions remain to be elucidated.
Km1 and Km2 (both mM) are interpreted as the Km for the octamer and hexamer, respectively.
Using freshly prepared hetero-oligomers of WT+F12L, the Pool I and Pool II proteins were separated chromatographically and then dialyzed for 24 hours at pH 7 in the presence of 10 mM ALA. Following dialysis, the re-equilibrated hetero-oligomers were again separated into their hexameric and octameric components by chromatography on a Mono-Q column. The separated proteins were characterized for their specific activity and for their Phe12 and Leu12 content. The specific activity of hexamer and octamer are dramatically different with hexamer showing optimal activity at pH 9 and the activity of octamer is maximal at pH 7 (Table 4). […] Following chromatographic separation, the proteins were called Pool I hexamer, Pool I octamer, Pool II hexamer, and Pool II octamer and are described below. The peak to elute first on the Mono-Q column runs comparably to the F12L mutant, which is the hexamer. The hexameric structure is substantiated by native gel electrophoresis and by specific activity at pH 7 and pH 9 (FIG. 26A and Table 4). The second peak to elute runs comparably to the WT human PBGS, which is the octamer. The octameric structure is substantiated by native gel electrophoresis and specific activity at pH 7 and pH 9 (FIG. 26A and Table 4). Consistent with the documented characteristics of human PBGS hexamers and octamers, Pool I hexamer and Pool II hexamer have very low activity at pH 7 and considerable activity at pH 9. Pool I octamer and Pool II octamer both show substantially higher activity at pH 7 than at pH 9.

human PBGS [4] = experiment: temperature dependence (Arrhenius plots) of hetero-hexamer to hetero-octamer conversion and of substrate turnover; conditions: pH 7.0, 10 mM ALA-HCl
Text: To determine the free energy of activation for the conversion of hetero-hexamers to hetero-octamers, we took advantage of the dramatic differences in the activity of octameric (high activity) and hexameric (low activity) human PBGS at pH 7.0 (3, 5). Because of this difference, the transition from purified hetero-hexamers to a mixture of hetero-hexamers and hetero-octamers under turnover conditions is accompanied by a progressive increase in the specific activity; this process was monitored at several temperatures. Starting with purified hetero-hexamers, (FIG. 34a) the specific activity increased, which is fit to a first-order exponential as exemplified in FIG. 35b (5). […] The time-courses for conversion of hetero-hexamer to hetero-octamer were monitored by periodically removing aliquots from the incubations and immediately quantifying porphobilinogen using Ehrlich's reagent and calculating specific activities based on the total incubation time. […] An activation energy for hetero-hexamer to hetero-octamer conversion (Ea=63±5 kJ/mol) was determined from the slope of the plot. […] However, we previously monitored this process at 5 μg/ml and 0.9 mg/ml, two widely different enzyme concentrations, by specific activity increase and dynamic light scattering respectively. […]

T2 sequence (P30124 69-398 C394A): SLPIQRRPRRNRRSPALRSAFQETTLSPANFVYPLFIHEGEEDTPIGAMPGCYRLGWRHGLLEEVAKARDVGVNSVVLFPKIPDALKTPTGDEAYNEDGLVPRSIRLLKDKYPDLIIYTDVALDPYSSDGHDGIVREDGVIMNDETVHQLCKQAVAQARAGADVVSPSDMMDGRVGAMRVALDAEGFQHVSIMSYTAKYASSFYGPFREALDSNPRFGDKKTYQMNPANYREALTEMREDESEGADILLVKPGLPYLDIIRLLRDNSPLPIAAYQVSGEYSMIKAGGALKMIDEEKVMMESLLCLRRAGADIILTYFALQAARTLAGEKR

Molecule | native gel: conversion of hexamer to octamer by ALA and magnesium (pea PBGS [1]) | IC50 (pea PBGS [2]) [µM] | mode of inhibition (dependence on preincubation time) (pea PBGS [2]) | PBGS concentration giving half maximal specific activity after rosmarinic acid treatment (pea PBGS [2]; 30 minute treatment with 30 μM rosmarinic acid, untreated 3.5 μg/ml) [µg/mL] | Specific activities before and after substrate induced disproportionation (human PBGS [3]; pH 7) [µmol/h/mg] | Km1 (human PBGS [3]; pH 7) [mM] | Vmax1 (human PBGS [3]; pH 7) | Vmax2 (human PBGS [3]; pH 7) [µmol/h/mg] | Km (human PBGS [3]; pH 7) [mM] | Specific activities before and after substrate induced disproportionation (human PBGS [3]; pH 9) [µmol/h/mg] | Km1 (human PBGS [3]; pH 9) [mM] | Vmax1 (human PBGS [3]; pH 9) | Vmax2 (human PBGS [3]; pH 9) [µmol/h/mg] | Km (human PBGS [3]; pH 9) [mM] | activation energy for substrate turnover (human PBGS [4]) [kcal/mol]
O=C(/C=C/c1ccc(O)c(O)c1)O[C@H](Cc1ccc(O)c(O)c1)C(=O)O [rosmarinic acid, benzenepropanoic acid, α-[[(2E)-3-(3,4-dihydroxyphenyl)-1-oxo-2-propenyl]oxy]-3,4-dihydroxy-, (αR)-(9CI), reference compound] | prevent conversion of the hexamer to the octamer; also recorded: stabilizes the hexameric pea PBGS against conversion to the octamer | ~63 | slow-binding inhibitor | 13.5 |  |  |  |  |  |  |  |  |  |  | 
B1 |  |  |  |  | 0.3 | 17.7 ± 1.1 | 1.14 ± 0.05 | 1.14 ± 0.05 | 17.7 ± 1.1 | 14.5 | 4.6 ± 0.1 | 18.2 ± 0.02 | 18.2 ± 0.2 | 4.6 ± 0.1 | 10.8 ± 0.72
